# Data: US20250306040A1 (UNIVERSITY OF KENTUCKY RESEARCH FOUNDATION, published 2025)
# No end group written: not given here.
# B1: rat amylin (peptide, UniProt P12969 38-74, looked up)
# peptide: KCNTATCATQRLANFLVRSSNNLGPVLPPTNVGSNTY
# notes: also called rodent amylin; non-amyloidogenic rat amylin
# B2: human amylin synthetic peptide (AS-60254-1, Anaspec) (peptide)
# peptide: KCNTATCATQRLANFLVHSSNNFGAILSSTNVGSNTY
# modifications: ends and bridges not checked; cysteine pairing not given here
# notes: The same id is used for human amylin in human brain sections and in HIP rat pancreas; also called islet amyloid polypeptide; IAPP
# How the values were obtained:
# [1] = molecular target: T1, Aβ40 synthetic peptide (AS-24235, Anaspec) (human, UniProt P05067 672-711); assay: amylin-Aβ sandwich ELISA on co-incubated peptides
# T1 construct: domain: Aβ40; also called human Aβ40
# T1 sequence (P05067 672-711 limits assumed): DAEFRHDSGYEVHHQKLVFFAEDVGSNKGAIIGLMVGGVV
# [2] = molecular target: T1, Aβ40 synthetic peptide (AS-24235, …); assay: time course (0 to 24 hours) of sandwich ELISA signal of human amylin incubated with Aβ40, in parallel with Th-T fluorescence
# [3] = molecular target: T1, Aβ40 synthetic peptide (AS-24235, …); assay: amylin-Aβ sandwich ELISA on co-incubated peptides, human amylin against rat amylin
# Protocol: The reaction was stopped by adding 50 μL of stop solution (N600, Thermo Scientific) after developing the signals, the plate was read at 450 nm in a spectrophotometer. Amylin-Aβ concentrations were calculated by generating a graph between relative optical density (O.D.) 450 of standards vs standard concentrations, after subtracting the optical density of standard blank and sample blank from the optical density of standards and samples respectively.
# Amylin-Aβ aggregates were prepared using the procedure described by O'Nuallain et al. Briefly, 30 μM human amylin synthetic peptide (AS-60254-1, Anaspec) was incubated in PBSA (PBS+0.05% sodium azide) in a water bath at 37° C. for 5 hrs. Aβ₄₀ synthetic peptide (16.2 μM) (AS-24235, Anaspec) was preincubated at 37° C. for 2 hrs. […]
# Specificity of amylin-Aβ sandwich ELISA was confirmed using a solution phase amylin-Aβ aggregation assay described in O'Nuallain et al. Synthetic human amylin and Aβ₄₀ peptides were incubated for promoting the amylin-Aβ aggregation and subjected to the amylin-Aβ sandwich ELISA. […] A robust amylin-Aβ immuno-reactivity signal was detected in co-aggregated amylin-Aβ solution, but not in the homogenous amylin and Aβ solutions (FIG. 2A). The aggregated amylin-Aβ solution was assayed for biochemical characteristics of amyloid by measuring the Thioflavin-T (Th-T) fluorescence signal intensity. […]
Binder,binding result [1],fold increase of signal intensity from the baseline [2] [fold],fold amylin-Aβ ELISA signal intensity against rat amylin-Aβ co-aggregation [3] [fold]
B1,binds,–,–
B2,–,3,~7
